From patent US20090312252A1, “Antimicrobial Activity in Variants of Lacritin” (priority 2006, published 2009)
Where no end group is shown, it is not given here.

Experiments:
[1] = test system: E. coli (ATCC #10536); type: cell-based; conditions: colony forming unit assay, phosphate buffer, 37°C; by extrapolation of concentration curves
Description: (§1) Antimicrobial Assays. The antimicrobial activities were tested using a colony forming unit assay. E. coli (ATCC #10536) was grown in LB medium at 37° C. to an OD600 of 0.5. The cells were washed 3 times in phosphate buffer (pH 7.2) and resuspended in 1 ml of the same buffer. The cells were then diluted 1:100 using two 10 fold serial dilutions. Following dilutions, 50 μl of cells were incubated with 100 μl of sample protein and 350 μl of phosphate buffer at 37° C. In place of sample protein, 100 μl of 10 mM phosphate buffered saline (pH 7.4) was used as the control sample. Following incubation, the cells were diluted 1:10 before plating 100 μl-200 μl in quadruplicates. The plates were incubated overnight at 37° C. and colony forming units were counted. The percentage of cell death was expressed using the following equation, [1-(cells surviving peptide)/(average colonies counted from PBS control)]×100%. The LC50 is defined as the lethal concentration of peptide required to kill 50 percent of the present bacteria and was determined for each Lacritin variant by extrapolation of concentration curves.
Lethal concentrations (μg/ml) of lacritin constructs required to kill 50 percent of E. coli in the antimicrobial assay. Lacritin is full length mature lacritin without signal peptide. N-XX denotes the number of amino acids removed from the N-terminal of mature lacritin and C-XX denotes the number of amino acids removed from the C-terminal of mature lacritin.

[2] = topical application to the eyes of rabbits; cited from earlier work
[3] = test system: E. coli; assay: Antimicrobial activity assay, colony forming units after incubation with E. coli (Example 2, FIGS. 4 and 5); type: cell-based; conditions: for average colony forming units / CFU as % of the control: four hours incubation at 37°C; for % of the bacteria killed: four hours incubation
Description: Purified recombinant lacritin variant proteins were assayed for antimicrobial activity by standard methods that involves an incubation period with actively growing bacteria and the protein of interest followed by plating on agar plates supplemented with growth media. The agar plates are incubated overnight and individual colonies are counted and expressed as Colony Forming Units (CFUs). The number of CFUs can be compared to the same bacteria incubated without protein.
E. coli at exponential growth (OD600=0.5) were washed twice in Phosphate Buffer (PB) diluted to a concentration of 1×10^6 cells/ml in PB and incubated with PB (no protein) or test proteins at 37° C. Samples were diluted and plated in triplicate on LB plates after four hours of incubation. Plates were grown at 37° C. overnight and counted. Colony counts were averaged and plotted as CFU/ml×10^3. The incubation volume was 0.5 ml at 25 mM NaCl.
C-25 was tested at a concentration of 53 μg/ml and N-71 was tested at various concentrations in μg/ml as shown in parentheses. pLAC is full length recombinant mature lacritin, and was tested at a concentration of 46 μg/ml. Bacteria incubated with buffer alone (the control) produced an average of 77×10^3 CFU/ml. Incubation with the lacritin variant C-25 produced an average of 79×10^3 or 103% of the control. […] The full-length recombinant lacritin protein (PLAC) produced an average of 38×10^3 CFU/ml or 49% of the control. The variant protein N-71 produced a concentration dependent antimicrobial activity that was less than 1% of the control at a concentration of 28 μg/ml.
The variant lacritin proteins were tested at the concentrations shown in parentheses in μg/ml. Bacteria incubated with buffer alone (the PB control) produced an average of 161×10^3 CFU/ml. Incubation with the lacritin variant N-24 produced an average of 108×10^3 or […] of the control. […] The variant protein N-35 produced an average of 25×10^3 CFU/ml or 16% of the control and the variant N-45 produced an average of 42×10^3 CFU/ml or 26% of the control. These variants are active in antimicrobial activity killing 84% and 74% respectively of the bacteria under the conditions tested. The variant N-55 produced an average of 2×10^3 CPU/ml or 0.01% of the control, the variant N-65 produced an average of 6×10^3 CFU/ml or 0.04% of the control, and the variant N-71 produced an average of 1×10^3 CFU/ml or 0.01% of the control.

[4] = test system: human salivary gland cells; conditions: recombinant lacritin produced in bacteria; cultured human salivary gland cells; cited from earlier work
[5] = test system: E. coli ML-35; assay: Inner membrane permeabilization, ONPG conversion by cytoplasmic β-galactosidase (FIG. 11); type: cell-based; conditions: 30 μg/ml; room temperature, 18 hours
Description: Inner Membrane Permeabilization. To examine the affect of Lacritin constructs on the inner membrane of gram negative bacteria, an enzymatic assay was conducted using a strain of permease-deficient E. coli, designated E. coli ML-35 (ATCC #43827) which also constitutively produces cytoplasmic βeta-galactosidase. E. coli ML-35 were grown in LB medium for 20 hours at 37° C. as a saturated overnight and then diluted with LB to an absorbance OD600 of 0.5. The cells were washed 3 times in 10 mM sodium phosphate buffer-10 mM NaCl (pH 7.2) and resuspended in 1 ml of the same buffer. The cells were then diluted 1:100 in 10 mM sodium phosphate buffer using two serial 10-fold dilutions. 70 μl of phosphate buffer, 30 μl of 30 mM βeta-galactosidase substrate ONPG (o-nitrophenyl-β-D-galactopyranoside) in 20 mM sodium phosphate buffer, 100 μl of cells in 10 mM sodium phosphate buffer and 50 μl of peptide sample were added to microtiter plate wells in duplicate. The production of ONP (o-nitrophenyl) from ONPG was measured over time using a spectrophotometer set at a wavelength of 415 nm.
Mature Lacritin (pLac) and various constructs of Lacritin were incubated with permease-deficient E. coli ML-35 at room temperature for 18 hours. The conversion of ONPG (o-nitrophenyl-β-D-galactopyranoside) to ONP (o-nitrophenyl) by cytoplasmic β-galactosidase was measured by a spectrophotometer at 415 nm. […]

[6] = test system: Staphylococcus aureus; assay: Colony forming unit antimicrobial assay against pathogenic bacteria (Table 3); type: cell-based; conditions: 26.3 μg/ml; 10 mM phosphate buffer, 3 hours
Description: as §1
(§2) Purified lacritin variant proteins at the concentrations shown were incubated with selected pathogenic bacteria in 10 mM phosphate buffer for 3 hours as described in the antimicrobial assay. The total number of colonies were counted and the percent cell death determined using [1-(colonies surviving peptide incubation)/(colony count from PBS control)]×100. N-XX denotes the number of amino acids removed from the N-terminal of mature lacritin.

[7] = test system: Pseudomonas aeruginosa; assay: as above; type: cell-based; conditions: 10 mM phosphate buffer, 3 hours
Description: as §1, §2

[8] = test system: Staphylococcus epidermidis; assay: as above; type: cell-based; conditions: 37.6 μg/ml; 10 mM phosphate buffer, 3 hours
Description: as §1, §2

[9] = FIG. 5, concentrations only shown in the figure
[10] = FIG. 5, concentrations only shown in the figure, PB control 161×10^3 CFU/ml

Molecule: MKSIVEKSILLTEQALAKAGKGMHGGVPGGKQFIENGSEFAQKLLKKFSLLKPWA [Construct N-65]
- LC50 (lethal concentration required to kill 50 percent of E. coli) [1]: 5.5 µg/mL

Molecule: MSILLTEQALAKAGKGMHGGVPGGKQFIENGSEFAQKLLKKFSLLKPWA [Construct N-71]
- LC50 (lethal concentration required to kill 50 percent of E. coli) [1]: 8.0 µg/mL

Molecule: N-72: mature lacritin with 72 amino acids removed from the N-terminal (ILLTEQALAKAGKGMHGGVPGGKQFIENGSEFAQKLLKKFSLLKPWA; UniProt Q9GZZ8 92-138, looked up, fragment) [Construct N-72]
- LC50 (lethal concentration required to kill 50 percent of E. coli) [1]: 7.5 µg/mL

Molecule: N-73: mature lacritin with 73 amino acids removed from the N-terminal (LLTEQALAKAGKGMHGGVPGGKQFIENGSEFAQKLLKKFSLLKPWA; UniProt Q9GZZ8 93-138, looked up, fragment) [Construct N-73]
- LC50 (lethal concentration required to kill 50 percent of E. coli) [1]: 8.0 µg/mL

Molecule: N-80: mature lacritin with 80 amino acids removed from the N-terminal (AKAGKGMHGGVPGGKQFIENGSEFAQKLLKKFSLLKPWA; UniProt Q9GZZ8 100-138, looked up, fragment) [Construct N-80]
- LC50 (lethal concentration required to kill 50 percent of E. coli) [1]: Not Active

B1: Lacritin: full length recombinant mature human lacritin without signal peptide, 119 amino acids, SEQ ID NO:27 (protein, listed as Homo sapiens)
chain: EDASSDSTGADPAQEAGTSKPNEEISGPAEPASPPETTTTAQETSAAAVQGTAKVTSSRQELNPLKSIVEKSILLTEQALAKAGKGMHGGVPGGKQFIENGSEFAQKLLKKFSLLKPWA
- tear production [2]: increases tear production
- average colony forming units ([3]; FIG. 4, 46 μg/ml, 25 mM NaCl, buffer control 77×10^3 CFU/ml): 38×10^3 CFU/ml
- CFU as % of the control ([3]; FIG. 4, 46 μg/ml, buffer control 77×10^3 CFU/ml): 49%
- LC50 (lethal concentration required to kill 50 percent of E. coli) [1]: 11.0 µg/mL
- cell growth [4]: promotes new cell growth
- inner membrane permeabilization (ONPG to ONP conversion, 415 nm) [5]: damage the cell membrane

B2: N-45: mature lacritin with 45 amino acids removed from the N-terminal (protein, listed as Homo sapiens)
chain: MAAAVQGTAKVTSSRQELNPLKSIVEKSILLTEQALAKAGKGMHGGVPGGKQFIENGSEFAQKLLKKFSLLKPWA
- Cell Death % [6]: 58%
- Cell Death % ([7]; 23.0 μg/ml): 99%
- % of the bacteria killed [3, 9]: 74%
- CFU as % of the control [3, 10]: 26%
- average colony forming units [3, 10]: 42×10^3 CFU/ml
- LC50 (lethal concentration required to kill 50 percent of E. coli) [1]: 1.0 µg/mL

B3: N-35: mature lacritin with 35 amino acids removed from the N-terminal (protein, listed as Homo sapiens)
chain: METTTTAQETSAAAVQGTAKVTSSRQELNPLKSIVEKSILLTEQALAKAGKGMHGGVPGGKQFIENGSEFAQKLLKKFSLLKPWA
- Cell Death % [8]: 69%
- Cell Death % ([7]; 36.8 μg/ml): 95%
- % of the bacteria killed [3, 9]: 84%
- CFU as % of the control [3, 10]: 16%
- average colony forming units [3, 10]: 25×10^3 CFU/ml
- LC50 (lethal concentration required to kill 50 percent of E. coli) [1]: 1.5 µg/mL
